B1: SRL (peptide)
chain: GYPFNDVCQWFIDRADLIFVVFDPTK
B2: SORT1 (peptide)
chain: VFDDLRGSVSLSWVGDSTGVILVLTT
B3: GLOD4 (peptide)
chain: VILADPDGHEICFVGDEAFRELSKMD
B4: OBSCN (peptide)
chain: RCELQICGLADADAGEYLCVCGQERT
B5: CAD (peptide)
chain: LRVSTKIGSCDKSVGEVMGIGRSFEE
B6: SORT1 (peptide)
chain: VFDDLRGSVSDSWVGDSTGVILVLTT
B7: CAD (peptide)
chain: LRVSTKIGSCMKSVLEVMGIGRSFEE
B8: HDAC2 (peptide)
chain: MEMYQPSAVVLQCGADSLSGDRLGCF
B9: NLRX1 (peptide)
chain: YIVLGLRKTTLQKVGKEVAELVGRVG
B10: FOXJ2 (peptide)
chain: PAKKMTLSEIYRWILDNFPYYKNAGI
B11: CPS1 (peptide)
chain: HGTSSRIGSSMKSVGEVMAIGRTFEE
B12: FOXJ2 (peptide)
chain: PAKKMTLSEIDRWICDNFPYYKNAGI
B13: TIGD7 (peptide)
chain: VLSRIEAGRSLKSVLDEFGISKSTFY
B14: MSH3 (peptide)
chain: AVLCVECGYKYRFFLEDAEIAARELN
B15: DSN1 (peptide)
chain: RAKASSLSEEDKHFADGLETDGTLQK
B16: OTUD5 (peptide)
chain: KQMKEDGACLDRAVADQVYGDQDMHE
B17: VPS13C (peptide)
chain: SRQPRDFGDSLARGGKGFLRGVVGGV
B18: FADD (peptide)
chain: APGEEDLCAAFNVILDNVGKDWRRLA
B19: OTUD5 (peptide)
chain: KQMKEDGACLFRAVADQVYGDQDMHE

What was measured:
Test in all cases: peptide SPOT array, c-Myc-tagged receptor at 1 uM or 100 nM, anti-c-Myc-Cy3
Bcl-xL, Q07817 = biological target: Bcl-xL, Q07817
Mcl-1, Q07820 = biological target: T1, Mcl-1, Q07820
T1 chain: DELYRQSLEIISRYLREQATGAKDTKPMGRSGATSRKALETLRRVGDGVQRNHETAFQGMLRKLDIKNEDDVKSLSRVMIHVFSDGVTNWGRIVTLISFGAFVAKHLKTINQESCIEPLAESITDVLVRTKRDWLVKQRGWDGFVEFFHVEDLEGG

Bfl-1, Q16548 = biological target: T2, Bfl-1, Q16548
T2 chain: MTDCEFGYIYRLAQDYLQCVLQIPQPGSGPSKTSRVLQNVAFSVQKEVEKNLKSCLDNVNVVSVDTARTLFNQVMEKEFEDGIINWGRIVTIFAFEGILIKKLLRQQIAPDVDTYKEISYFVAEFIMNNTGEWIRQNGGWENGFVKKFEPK

Chain of Bcl-xL, Q07817 (Q07817 1-209): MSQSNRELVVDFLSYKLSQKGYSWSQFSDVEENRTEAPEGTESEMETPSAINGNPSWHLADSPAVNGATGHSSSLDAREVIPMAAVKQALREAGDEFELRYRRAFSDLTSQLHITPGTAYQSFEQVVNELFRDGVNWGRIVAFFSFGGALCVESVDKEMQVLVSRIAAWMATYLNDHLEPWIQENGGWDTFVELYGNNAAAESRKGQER

Binder | SPOT signal as a fraction of Bim BH3's signal on the same receptor and array (Bcl-xL, Q07817) | SPOT signal as a fraction of Bim BH3's signal on the same receptor and array (Mcl-1, Q07820) | SPOT signal as a fraction of Bim BH3's signal on the same receptor and array (Bfl-1, Q16548)
B1 | 0.07 | 0.06 | 0.05
B2 | 0.02 | 0.01 | 
B3 | 0.02 | 0.01 | 
B4 | 0.01 | 0.01 | 
B5 | 0.02 | 0.02 | 
B6 | 0.02 | 0.02 | 
B7 | 0.04 | 0.04 | 
B8 |  |  | 0.03
B9 | 0.36 | 0.33 | 0.26
B10 | 0.82 | 0.42 | 0.45
B11 | 0.02 | 0.02 | 
B12 | 0.58 | 0.29 | 0.26
B13 | 0.08 | 0.085 | 
B14 | 0.02 | 0.02 | 
B15 | 0.06 | 0.04 | 0.03
B16 |  |  | 0.0533
B17 | 1 | 0.53 | 
B18 | 0.06 | 0.06 | 0.04
B19 |  |  | 0.0533

Source: PMC4072508, “Genome-Wide Prediction and Validation of Peptides That Bind Human Prosurvival Bcl-2 Proteins” (PLoS Computational Biology, 2014)
